{
  "source": "patent US20020115613A1",
  "about": "“Treatment of prostate cancer” (priority 2001, published 2002)",
  "molecules": {"B1": {"name": "Tumor necrosis factor α—Related Apoptosis Inducing Ligand (protein, UniProt P50591 1-281, looked up)", "Tumor necrosis factor ligand …": "MAMMEVQGGPSLGQTCVLIVIFTVLLQSLCVAVTYVYFTNELKQMQDKYSKSGIACFLKEDDSYWDPNDEESMNSPCWQVKWQLRQLVRKMILRTSEETISTVQEKQQNISPLVRERGPQRVAAHITGTRGRSNTLSSPNSKNEKALGRKINSWESSRSGHSFLSNLHLRNGELVIHEKGFYYIYSQTYFRFQEEIKENTKNDKQMVQYIYKYTSYPDPILLMKSARNSCWSKDAEYGLYSIYQGGIFELKENDRIFVSVTNEHLIDMDHEASFFGAFLVG", "notes": "281 amino acid type II transmembrane protein of the tumor necrosis factor α family; purchased from Biomol"}},
  "key": {"[1]": {"test_system": "LNCaP cells", "test": "Apoptosense assay (M30 ELISA, cleaved cytokeratin 18)", "format": "cell-based", "method": "LNCaP were obtained from American Type Culture Collection (Rockville, Md.) and LNCaP C4-2 cells were purchased from Urocor Inc., Oklahoma City, Okla. Cells were grown in RPMI 1640 medium supplemented with 10% (LNCaP) or 5% (LNCaP C4-2) fetal bovine serum (Hyclone, Logan, Utah) and grown in the presence of 5% CO2 at 37° C. Cells were treated with 10 μM Mifepristone (Sigma, St. Louis, Mo.) for three days or with increasing concentrations (from 200 ng/ml to 600 ng/ml) of TRAIL (Biomol Research Laboratories, Inc., Plymouth Meetings, Pa.) for varying time intervals 2, 4, 6, 8, 16, 20 and 24 hours (hr). Thus, for treatment with Mifepristone, cells were treated with Mifepristone for three days and then some cells treated (without washing) with TRAIL for indicated periods. Upon completion of the experiment, cells were harvested, and total proteins, cytosol or mitochondrial fractions were isolated as described below. At least three experiments were conducted with a minimum of four plates per treatment per experiment. Two methods were used to measure induction of apoptosis by drug treatment: the MTT assay and the Apoptosense assay. The MTT assay measures mitochondrial enzyme activity and is indicative of the number of surviving cells. […] Cells were plated in petri dishes and after completion of the treatment, cells were harvested and total protein extracted as described below. […] Color was developed by adding tetramethylbenzidine solution and the optical density of the bound antibody was determined at 450 nm on a Spectra MAX 340 microplate reader (Molecular Devices, Menlo Park, Calif.). Standard solution supplied by the supplier was used for generating standard curves."}, "[2]": {"test_system": "prostate cancer cells", "conditions": "cited from earlier work"}, "[3]": {"test_system": "LNCaP cells", "conditions": "cited from earlier work"}, "[4]": {"test_system": "PC3Neo cells", "test": "Western blotting of death receptors, caspases, Bid, NFκB, XIAP", "format": "cell-based", "method": "(§1) Prostate cancer cell lines, PC3Neo and PC3AR were provided by Dr. K. Burnstein, University of Miami School of Medicine, Miami, Fla. PC3AR cells are a clonal cell line derived by stable transfection of PC3 with a full-length human AR cDNA (Dai, J. L., et al., Steroids, 61, 531-539, 1996). PC3Neo cells were stably transfected with neomycin vector alone. Cells were grown in RPMI 1640 with 5% FBS (Hyclone, Logan, Utah), 100 units/ml penicillin, 100 μg/ml streptomycin, 0.25 μg/ml fungizone and G418 (350 μg/ml) to select for neomycin-resistant cells. In experiments using antiandrogens, cells were maintained in 5% DCC stripped serum for at least 48 hr before treatment with hydroxyflutamide (Sigma Chemical Co., St. Louis, Mo.). The medium and all the drugs were replaced every two days. Cells were treated with 200 ng/ml, 400 ng/ml or 600 ng/ml of TRAIL (Biomol Research Laboratories, Inc, Plymouth Meeting, Pa.) for 2, 4, 6, 8, 16 and 20 hr. Cells were treated with 5 μM hydroxyflutamide for 5 days before the commencement of treatment with 400 ng/ml TRAIL.\n(§2) Cells were harvested by trypsinization, washed in 1×PBS and cell pellets resuspended in lysis buffer (100 mM Tris-HCl pH 8.0, 0.1% Triton X 100 and protease inhibitor cocktail from Roche Diagnostic Corporation, Indianapolis, Ind.). Cells were incubated over ice for 30 min and centrifuged at 10,000 g at 4° C. for 10 min. The supernatant was collected and the protein concentration estimated using Bio-Rad protein reagent (Bio-Rad Laboratories, Hercules, Calif.).\n(§3) Proteins (50 μg, unless stated otherwise) were separated on NuPAGE 10% Bis-Tris gels (Novex pre-cast mini gels, InVitrogen, Carlsbad, Calif.) at 100 volts for 1 hour in the presence of 1×MES-SDS running buffer (InVitrogen, Carlsbad, Calif.). Separated proteins were transferred to (PVDF) membranes (Bio-Rad Laboratories, Hercules, Calif.) at 42 volts for 2.5 hr using a Novex XCell II blotting apparatus in MES transfer buffer in the presence of NuPAGE antioxidant. Transfer of the proteins to the polyvinylidene difluoride (PVDF) membrane was confirmed by staining with Ponceau S (Sigma, St. Louis, Mo.). The blots were blocked in 5% non-fat dry milk in TBS, washed twice for 10 min each with TBS containing 0.1% Tween-20 and incubated for 2 hr at RT with primary antibody diluted in TBS containing 0.5% milk.\n(§4) The following antibodies were used in the immunoblots: DR4, DR5 and cytochrome c (Imgenex, San Diego, Calif.), BID (BioSource International, Camarillo, Calif.), caspases-8, -9, and Akt (Cell Signaling Technology, Beverely, Mass.), caspase-3 (BD Pharmingen, San Diego, Calif.) Iκβ and XIAP (Cell Signaling Technology, Beverly, Mass.), cFLIP (StressGen Biotechnology Corp, Victoria, Canada), actin (Sigma Chemical Co., St. Louis, Mo.) and Cox II (Molecular Probes, Eugene, Oreg.). Immunoreactive bands were visualized using ECL detection system (Amersham, Pharmacia Biotech, Arlington Heights, Ill.) and signals were developed after exposure to X-ray film (X-Omat films, Eastman Kodak Company, Rochester, N.Y.).\n(§5) For separation of mitochondrial and cytosolic fractions, cells were trypsinized, centrifuged at 600 g for 10 min at 4° C., washed twice in ice-cold PBS and re-suspended in buffer A (20 mM HEPES-KOH, pH 7.2, 10 mM KCl, 1.5 mM MgC12, 1 mM sodium-EDTA, 1 mM sodium-EGTA, 250 mM sucrose and protease inhibitor cocktail). Cells were homogenized on ice with a glass Dounce homogenizer (30 strokes) and were centrifuged at 750 g for 5 min at 4° C. The supernatant was centrifuged for 15 min at 10,000 g at 4° C. to pellet mitochondria, which was washed and resuspended in lysis buffer. The supernatant was centrifuged at 100,000 g for 60 min at 4° C. and S-100 cytosol was collected. […]"}, "[5]": {"test_system": "PC3AR cells", "test": "Western blotting of death receptors, caspases, Bid, NFκB, XIAP", "format": "cell-based", "method": "as §1, §2, §3, §4, §5"}, "[6]": {"test_system": "PC3AR cells", "test": "Induction of apoptosis / cell survival (FIG. 1E, 6A)", "format": "cell-based", "description": "Two methods were used to measure induction of apoptosis by drug treatment: the MTT assay and the Apoptosense assay. The MTT assay measures mitochondrial enzyme activity and is indicative of the number of surviving cells. The Apoptosense assay is an ELISA, which utilizes M30 antibody to recognize the C-terminal domain (amino acids 387-396) of cytokeratin 18 that is exposed in apoptotic cells after cleavage by caspases.\nCells were seeded in 96-well plates (6000 cells/well) and treatment was started 24 hr after seeding the cells. After completion of the treatment, cells were incubated at 37° C. with the MTT reagent for 3 hr and processed according to manufacturers instructions (Promega Corporation, Madison, Wis.). Color development was measured at 490 nm on a Spectra MAX 340 microplate reader (Molecular Devices, Menlo Park, Calif.)."}, "[7]": {"conditions": "400 ng/ml TRAIL, by 2 hr, FIG. 2C"}},
  "data": [
    {"molecule": "CC#C[C@]1(O)CC[C@H]2[C@@H]3CCC4=CC(=O)CCC4=C3[C@@H](c3ccc(N(C)C)cc3)C[C@@]21C", "note": "[Mifepristone]", "values": [
      {"measurement": "M30 activity (in words)", "setting": "[1]", "value": "lower M30 activity"},
      {"measurement": "ability to induce apoptosis in prostate cancer cells (Sridhar et al., 2001)", "setting": "[2]", "value": "marginal ability to induce apoptosis"},
      {"measurement": "induction of tBid (Sridhar et al., 2001)", "setting": "[3]", "value": "weakly induced"}
    ]},
    {"molecule": "B1", "values": [
      {"measurement": "activated caspase-9", "setting": "[4]", "value": "not detected"},
      {"measurement": "increase in expression of DR5", "setting": "[4]; [7]", "value": "~2", "unit": "fold"},
      {"measurement": "DcR2 expression", "setting": "[4]; TRAIL treatment", "value": "did not significantly alter DcR2 expression"},
      {"measurement": "DR4 levels", "setting": "[4]; TRAIL-treated", "value": "did not show significant changes"},
      {"measurement": "tBid expression", "setting": "[4]; by 4 hr of TRAIL treatment, not shown", "value": "little tBid was present"},
      {"measurement": "tBid in mitochondria", "setting": "[4]; mitochondrial fraction, highest level by 2 hr, not shown", "value": "significantly lower than that seen in PC3AR cells"},
      {"measurement": "XIAP levels", "setting": "[4]; not shown", "value": "did not alter XIAP levels significantly"},
      {"measurement": "cleaved caspase-3 (p17)", "setting": "[4]; not shown", "value": "present in both cell lines as early as 2 hr"},
      {"measurement": "expression of NFκB", "setting": "[4]; not shown", "value": "increased the expression of NFκB levels"},
      {"measurement": "mature p12 caspase-3 product", "setting": "[4]; not shown", "value": "noted only in PC3AR"},
      {"measurement": "cleavage of procaspase-8", "setting": "[4]; within 2 hr, not shown", "value": "induced cleavage of procaspase-8"},
      {"measurement": "increase in expression of DR5", "setting": "[5]; [7]", "value": "~5", "unit": "fold"},
      {"measurement": "increase in expression of DR5 (peak)", "setting": "[5]; 400 ng/ml TRAIL, by 16 hr, FIG. 2C", "value": "~8", "unit": "fold"},
      {"measurement": "DcR2 expression", "setting": "[5]; TRAIL treatment", "value": "did not significantly alter DcR2 expression"},
      {"measurement": "DR4 levels", "setting": "[5]; TRAIL-treated", "value": "increased"},
      {"measurement": "cleaved caspase-9", "setting": "[5]; by 4 hr, lasted until 16 hr", "value": "significant levels of cleaved caspase-9 were detected"},
      {"measurement": "tBid in mitochondria", "setting": "[5]; mitochondrial fraction, not shown", "value": "translocated into mitochondria within 2 hours"},
      {"measurement": "XIAP levels", "setting": "[5]; not shown", "value": "did not alter XIAP levels significantly"},
      {"measurement": "cleaved caspase-3 (p17)", "setting": "[5]; not shown", "value": "present in both cell lines as early as 2 hr"},
      {"measurement": "expression of NFκB", "setting": "[5]; not shown", "value": "increased the expression of NFκB levels"},
      {"measurement": "mature p12 caspase-3 product", "setting": "[5]; not shown", "value": "noted only in PC3AR"},
      {"measurement": "tBid expression", "setting": "[5]; not shown", "value": "detected up to 8 hr of treatment"},
      {"measurement": "cleavage of procaspase-8", "setting": "[5]; within 2 hr, not shown", "value": "induced cleavage of procaspase-8"},
      {"measurement": "apoptotic response at 200 ng/ml", "setting": "[6]; 200 ng/ml TRAIL", "value": "lower response"},
      {"measurement": "apoptosis", "setting": "[6]; 400 ng/ml TRAIL, by 20 hr, FIG. 1E", "value": "~41", "unit": "%"},
      {"measurement": "apoptosis at higher dose", "setting": "[6]; 600 ng/ml TRAIL", "value": "did not significantly increase apoptosis"}
    ]}
  ]
}
